Target: mk03_human MAPK3 (UniProt P27361)
Sequence (P27361 whole entry): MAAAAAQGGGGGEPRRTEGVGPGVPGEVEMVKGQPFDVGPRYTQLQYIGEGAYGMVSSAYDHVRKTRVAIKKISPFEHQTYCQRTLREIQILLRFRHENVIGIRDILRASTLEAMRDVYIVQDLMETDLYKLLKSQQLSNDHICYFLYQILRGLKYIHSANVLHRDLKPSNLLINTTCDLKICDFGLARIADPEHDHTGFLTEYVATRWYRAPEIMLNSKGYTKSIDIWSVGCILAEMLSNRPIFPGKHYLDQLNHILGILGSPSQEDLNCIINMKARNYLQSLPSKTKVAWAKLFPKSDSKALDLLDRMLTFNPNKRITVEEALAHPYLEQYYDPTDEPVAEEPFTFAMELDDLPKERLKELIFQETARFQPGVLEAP

Substance	effect of a mutation on the interaction
Protein scribble homolog (Homo sapiens), Q14160 K1399A;R1400A	disrupting interaction
Protein scribble homolog (Homo sapiens), Q14160 R839A;R840A	decreasing interaction

Reference: IntAct's records for PubMed 20622900
